In patent US20050058639A1 (AstraZeneca / MedImmune, published 2005):

B1: anti-MCP-1 mAb 1.9.1 (antibody, V domains shown)
VH: QVQLVQSGAEVKKPGASVKVSCKVSGYTLTELSMHWVRQAPGKGLEWMGGFDPEDGETINAQKFQGRVTMTEDTSTDTGYMELSSLRSEDTAVYYCATDPGGYSGYFDHWGQGTLVTVSS
VL: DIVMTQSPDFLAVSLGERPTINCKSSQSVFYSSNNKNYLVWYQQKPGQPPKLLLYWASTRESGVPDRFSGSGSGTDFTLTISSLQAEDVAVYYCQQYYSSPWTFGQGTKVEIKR
B2: anti-MCP-1 mAb 2.4.1 (antibody, V domains shown)
VH: QVQLVQSGAEVKKPGASVKVSCKASGYTFTGYYLHWVRQAPGQGLEWMGWINPYNDGTNYAQKFQGRVTMTRDTSISTAYMELSRLRSDDTAVYYCARDIAAAGAVYFDYWGQGTLVTVSS
VL: DIQMTQSPSSLSASVGDRVTITCQASQDITTYLNWYQQKPGKAPKLLIYDASNLETGVPSRFSGSGSGTDFTFTISSLQPEDIATYYCQQYDNLPITFGQGTRLEIKR
B3: anti-MCP-1 mAb 3.5.1 (antibody, V domains shown)
VH: QVQLVQSGAEVKKPGASVKVSCKVSGYTLSELSMHWVRQAPGKGLEWMGGFDPEDDETIYAQKFQGRVTMTEDTSTDTAFMELSSLRSEDTAVYYCATHDFWSGYFHYWGQGTLVTVSS
VL: DIVMTQSPDSLAVSLGERATINCKSSQSVLYSSDNKSYLVWYQQKPGQPPKVLIYWASIRESGVPDRFSGSGSGTDFTLTISSLQAEDVAVYYCQQYYTSPWTFGQGTKVEIKR
B4: anti-MCP-1 mAb 3.6.1 (antibody, V domains shown)
VH: QVQLVQSGAEVKKPGASVKVSCKVSGYTLTELSMHWVRQAPGKGLEWMGGFDPEDGETIYAQKFQGRVTMTEDTSTDTAYMELSSLRSEDTAVYYCAIHEFWSGYFDYWGQGTLVTVSS
VL: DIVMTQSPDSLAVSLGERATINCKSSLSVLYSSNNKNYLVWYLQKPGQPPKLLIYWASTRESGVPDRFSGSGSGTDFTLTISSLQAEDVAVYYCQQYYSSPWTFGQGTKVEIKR
B5: anti-MCP-1 mAb 3.8 (antibody, V domains shown)
VH: QVQLVQSGAEVKKPGASVKVSCKVSGYTLTELSMHWVRQAPGKGLEWMGGFDPENGETIHAQKFQGRVIMTEDTSTDTAYMELSSLRSEDTAVYYCATDQGGYSGYFDCWGQGTLVTVSS
VL: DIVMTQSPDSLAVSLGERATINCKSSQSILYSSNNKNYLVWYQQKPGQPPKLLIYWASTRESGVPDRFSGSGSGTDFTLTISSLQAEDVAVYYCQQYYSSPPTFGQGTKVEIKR
notes: also called 3.8.1
B6: anti-MCP-1 mAb 5.3.1 (antibody, V domains shown)
VH: QVQLVQSGAEVKKPGASVKVSCKVSGYTLSELSMHWVRQAPGKGLEWMGGFDPEDGETIYAQKFQGRVTMTEDTSTDTAYMELSSLRSEDTAVFYCATKREYSGYFDYWGQGTLVTVSS
VL: DIVMTQSPDSLAVSLGERATINCKSSQSVLYSSNSKNYLAWFQQKPGQPPKLLIYWASTRESGVPDRFSGSGSGTDFTLTISRLQAEDVAVYSCQQYFITPWTFGQGTKVELKR

Experiments:
[1] = biological target: T1, human RANTES (human, UniProt P13501 24-91); assay: ELISA, coated antigen
T1 construct: also called hRANTES
T1 sequence (looked up): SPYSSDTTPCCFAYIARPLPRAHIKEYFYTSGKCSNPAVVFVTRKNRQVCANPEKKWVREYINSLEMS
How it was run: (§1)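 Plates coated overnight at 4° C with MCP-1, MCP-2, MCP-3, MCP-4, RANTES, GRO-alpha, MIP-1 alpha, eotaxin, rat MCP-1 or mouse JE (2 μg/ml, carbonate buffer pH 9.6), blocked with BSA. Hybridoma supernatants bound 2 hours at room temperature; TMB colour developed about 10 minutes.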

[2] = biological target: rat MCP-1 (rat, UniProt P14844 24-148); assay: ELISA, coated antigen
How it was run: as §1

[3] = biological target: T2, recombinant human MCP-3 (human, UniProt P80098 24-99); assay: ELISA, coated antigen
T2 construct: also called rhMCP-3
How it was run: as §1

[4] = biological target: T3, human eotaxin (human, UniProt P51671 24-97); assay: ELISA, coated antigen
T3 construct: also called hEotaxin
How it was run: as §1

[5] = biological target: T4, human MIP-1-alpha (human, UniProt P10147 24-92, limits assumed); assay: ELISA, coated antigen
T4 construct: also called hMIP-1-alpha
T4 sequence (looked up): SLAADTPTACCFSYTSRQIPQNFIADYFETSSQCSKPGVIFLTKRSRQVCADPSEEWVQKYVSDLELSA
How it was run: as §1

[6] = biological target: T5, human GRO/MGSA (human, UniProt P09341 35-107); assay: ELISA, coated antigen
T5 construct: also called hGRO/MGSA; GRO-alpha
T5 sequence (looked up): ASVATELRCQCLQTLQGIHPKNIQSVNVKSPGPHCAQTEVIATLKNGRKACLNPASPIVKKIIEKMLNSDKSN
How it was run: as §1

[7] = biological target: T6, recombinant mouse JE/MCP-1 (mouse, UniProt P10148 24-148); assay: ELISA, coated antigen
T6 construct: also called rmJE/MCP-1
How it was run: as §1

[8] = biological target: T7, recombinant human MCP-4 (human, UniProt Q99616 24-98, limits assumed); assay: ELISA, coated antigen
T7 construct: also called rhMCP-4
How it was run: as §1

[9] = biological target: T8, recombinant human MCP-2 (human, UniProt P80075 24-99); assay: ELISA, coated antigen
T8 construct: also called rhMCP-2
T8 sequence (looked up): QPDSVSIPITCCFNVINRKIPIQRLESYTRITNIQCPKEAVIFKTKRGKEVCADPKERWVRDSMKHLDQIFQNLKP
How it was run: as §1

[10] = biological target: T9, human monocyte chemo-attractant protein-1 (MCP-1) (human, UniProt P13500 24-99); assay: ELISA, coated antigen; ELISA, purified clone 1:50 on coated hMCP-1 (2 ug/mL), cross-reactivity panel
T9 construct: 76-residue recombinant protein from E. coli, bought (PeproTech); also called hMCP-1(MCAF); human MCP-1
Procedure: Determining cross-reactivity of anti-MCP-1 antibodies with other chemokines. ELISA plates (Fisher Cat. No. 12-565-136) were coated with 50 μl/well of MCP-1, MCP-2, MCP-3, MCP-4, RANTES, GRO-alpha, MIP-1 alpha, eotaxin, rat MCP-1 and mouse JE (2 μg/ml) in coating buffer (0.1 M carbonate buffer, pH 9.6, NaHCO₃ 8.4 g/L, then incubated at 4° C. overnight. After incubation, the plates were washed with washing buffer (0.05% Tween 20 in PBS) three times. 200 μL/well blocking buffer (0.5% BSA, 0.1% Tween 20, 0.01% Thimerosal in 1×PBS) were added and the plates incubated at room temperature for 1 hour. After incubation, the plates were washed with washing buffer three times. 50 μL/well of hybridoma supernatants, and positive and negative controls (positive control was anti-MCP-1 antibody purchased from R&D Sciences, and negative control was an antibody to Keyhole Limpet Hemocyanin produced at Abgenix) were added and the plates incubated at room temperature for 2 hours. After incubation, the plates were washed three times with washing buffer. […] After incubation, the plates were washed three times with washing buffer and 100 μL/well of TMB (BioFX Lab. Cat. #TMSK-0 100-01) was added and the plates allowed to develop for about 10 minutes.

[11] = biological target: T9, human monocyte chemo-attractant …; assay: Biacore, mAb immobilized, MCP-1 injected; Biacore, 25 C, native MCP-1 injected over immobilized mAb
Procedure: Determination of anti-MCP-1 antibody affinity using Biacore analysis. The antibody/MCP-1 interaction analysis was performed at 25° C. using two CM5 chips docked in Biacore 3000 optical biosensors. Individual flow cells on each chip were activated with a 7-minute injection of NHS/EDC, carbohydrazide was coupled through the NHS ester using a 7-minute injection, and the residual activated groups were blocked with a 7-minute injection of ethanolamine. The monosaccharide residues of each antibody were oxidized using 1 mM sodium metaperiodate in 100 mM sodium acetate, pH 5.5 at 4° C. for 30 minutes. The oxidized antibody was desalted into 100 mM sodium acetate, pH 5.0, to couple the antibody to the carbohydrazide-modified surface. The mAb surfaces were stabilized by reducing the hydrazone bond with 0.1 M sodium cyanoborohydride. The antigen/antibody interaction was tested by injecting 0, 0.049, 0.15, 0.4, 1.3, 4 and 12 nM of MCP-1 (Peprotech, N.J.) in running buffer (10 mM HEPES, 150 mM NaCl, 0.005% surfactant, 200 μg/ml BSA, pH 7.4). The surfaces were regenerated with a 12-second pulse of 15 mM H₃PO₄. The antigen/antibody interaction was tested by injecting duplicate antigen samples diluted in running buffer (10 mM HEPES, […], 0.005% surfactant, 200 μg/mL BSA, pH 7.4), in a 300-fold concentration range. The surfaces were regenerated with a 12-second pulse of 15 mM H₃PO₄. To determine the kinetics of each interaction, the data sets were fit globally to a 1:1 interaction model that included a parameter for mass transport.

[12] = biological target: T9, human monocyte chemo-attractant …; assay: ELISA, hybridoma supernatant on coated MCP-1; ELISA, hybridoma supernatant on plate-coated non-reduced MCP-1 (2 ug/mL)
Procedure: Selection of candidate antibodies for ELISA. After 14 days of culture, hybridoma supernatants were screened for MCP-1-specific monoclonal antibodies. The ELISA plates (Fisher, Cat. No. 12-565-136) were coated with 50 μl/well of MCP-1 (2 μg/mL) in Coating Buffer (0.1 M Carbonate Buffer, pH 9.6, NaHCO₃8.4 g/L), then incubated at 4° C. overnight. After incubation, the plates were washed with Washing Buffer (0.05% Tween 20 in PBS) three times. 200 μl/well Blocking Buffer (0.5% BSA, 0.1% Tween 20, 0.01% Thimerosal in 1× PBS) were added and the plates incubated at room temperature for 1 hour. After incubation, the plates were washed with Washing Buffer three times. 50 μL/well of hybridoma supernatants, and positive and negative controls were added and the plates incubated at room temperature for 2 hours.
The positive control used throughout was XMG2 MCP-1 Group 1, footpad N160-7 and the negative control was XMG2 KLH Group 1, footpad L627-6. After incubation, the plates were washed three times with Washing Buffer. […] In the secondary screen, three sets of samples (positives in first screening) were screened, one set for hIgG detection, one set for hKappa detection, and one set for hlambda detection. After incubation, the plates were washed three times with Washing Buffer. 100 μL/well of TMB (BioFX Lab. Cat. #TMSK-0100-01) were added and the plates allowed to develop for about 10 minutes (until negative control wells barely started to show color), then 50 μL/well stop solution (TMB Stop Solution (BioFX Lab. Cat. #STPR-0100-01) were added and the plates read on an ELISA plate reader at wavelength 450 nm. The OD readings from the positive wells are presented in Table 9.

[13] = biological target: T9, human monocyte chemo-attractant …; assay: cell-based or functional assay

T3 sequence (P51671 24-97 limits assumed): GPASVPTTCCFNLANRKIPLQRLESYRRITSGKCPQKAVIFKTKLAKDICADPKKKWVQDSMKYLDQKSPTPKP
Chain of rat MCP-1 (P14844 24-148 limits assumed): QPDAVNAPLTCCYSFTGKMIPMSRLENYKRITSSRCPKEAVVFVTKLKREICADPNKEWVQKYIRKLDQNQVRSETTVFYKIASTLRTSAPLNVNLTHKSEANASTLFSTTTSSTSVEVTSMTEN
T9 sequence (P13500 24-99): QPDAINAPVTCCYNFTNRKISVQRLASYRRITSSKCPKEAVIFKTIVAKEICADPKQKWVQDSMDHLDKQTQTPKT
T6 sequence (P10148 24-148 limits assumed): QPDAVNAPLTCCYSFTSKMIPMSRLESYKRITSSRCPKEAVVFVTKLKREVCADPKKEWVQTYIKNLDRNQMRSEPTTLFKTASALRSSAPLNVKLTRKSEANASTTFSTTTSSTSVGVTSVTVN
T7 sequence (Q99616 24-98 limits assumed): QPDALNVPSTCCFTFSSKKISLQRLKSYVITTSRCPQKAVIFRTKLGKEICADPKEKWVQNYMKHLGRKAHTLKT
T2 sequence (P80098 24-99 limits assumed): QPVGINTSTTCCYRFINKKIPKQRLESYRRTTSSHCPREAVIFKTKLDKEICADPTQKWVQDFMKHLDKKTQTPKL

Binder | ELISA OD [1] [OD450] | ELISA OD [2] [OD450] | ELISA OD [3] [OD450] | ELISA OD [4] [OD450] | ELISA OD [5] [OD450] | ELISA OD [6] [OD450] | ELISA OD [7] [OD450] | ELISA OD [8] [OD450] | ELISA OD [9] [OD450] | ELISA OD [10] [OD450] | Kd [11] [nM] | ELISA OD-MCP-1 [12] [OD450] | IC50 Ca++ Flux [13] [µg/mL] | IC50 Chemotaxis [13] [µg/mL]
B1 | 0.042 | 0.065 | 0.044 | 0.042 | 0.044 | 0.043 | 0.053 | 0.042 | 0.04 | 0.446 | 0.096 | 3.66 | 1.2 | 35
B2 | 0.046 | 0.077 | 0.066 | 0.084 | 0.061 | 0.048 | 0.129 | 0.06 | 0.045 | 0.462 | 0.014 | 3.89 | 0.26 | > 5
B3 | 0.044 | 0.053 | 0.045 | 0.043 | 0.047 | 0.048 | 0.042 | 0.044 | 0.042 | 0.194 | 0.1 | 3.77 | 0.58 | 3.1
B4 | 0.043 | 0.046 | 0.045 | 0.043 | 0.047 | 0.047 | 0.047 | 0.048 | 0.052 | 0.342 | 0.015 | 3.59 | 0.17 | 0.52
B5 | 0.046 | 0.062 | 0.046 | 0.042 | 0.046 | 0.046 | 0.042 | 0.044 | 0.042 | 0.275 | 0.0034 | 3.6 | 0.27 | 0.7
B6 | 0.045 | 0.047 | 0.045 | 0.042 | 0.042 | 0.045 | 0.05 | 0.043 | 0.043 | 0.272 | 0.45 | 4 | 1.8 | 2.6
